From the supplement of paper PMC9112550, “Optimization of the antimicrobial peptide Bac7 by deep mutational scanning” (BMC Biology, 2022)

System: Escherichia coli TOP10
Experiment: shrunken log2 fold change of peptide-encoding DNA abundance (4.5 h post-induction vs induction); higher = less antimicrobial activity (less host growth inhibition)
Conditions: time post-induction: 4.5 h; library: site-saturation at positions 5, 18, 19, 20
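Further: peptides expressed intracellularly from a pBAD plasmid library in pooled LB shake-flask culture, induced with 0.3% L-arabinose, DNA abundance read by NGS, three biological replicates, DESeq2 with apeglm shrinkage.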

Sequence | shrunken log2 fold change
RRIRVRPPRLPRPRPRPHDEPRP | 0.0655
RRIRVRPPRLPRPRPRPHDRPRP | 0.068
RRIRVRPPRLPRPRPRPHEEPRP | 0.0138
RRIRVRPPRLPRPRPRPHEFPRP | -0.0515
RRIRVRPPRLPRPRPRPHELPRP | 0.118
RRIRVRPPRLPRPRPRPHESPRP | 0.22
RRIRVRPPRLPRPRPRPHFDPRP | 0.0221
RRIRVRPPRLPRPRPRPHFMPRP | 1.55
RRIRVRPPRLPRPRPRPHGKPRP | -0.389
RRIRVRPPRLPRPRPRPHHNPRP | 0.192
RRIRVRPPRLPRPRPRPHHVPRP | -0.261
RRIRVRPPRLPRPRPRPHIQPRP | -0.528
RRIRVRPPRLPRPRPRPHKNPRP | -0.301
RRIRVRPPRLPRPRPRPHKYPRP | -0.725
RRIRVRPPRLPRPRPRPHLGPRP | -0.132
RRIRVRPPRLPRPRPRPHLHPRP | -0.279
RRIRVRPPRLPRPRPRPHLKPRP | -0.284
RRIRVRPPRLPRPRPRPHLVPRP | -0.133
RRIRVRPPRLPRPRPRPHMNPRP | -0.499
RRIRVRPPRLPRPRPRPHMSPRP | -0.405
RRIRVRPPRLPRPRPRPHPYPRP | -1.08
RRIRVRPPRLPRPRPRPHRPPRP | -0.243
RRIRVRPPRLPRPRPRPHRWPRP | 0.0461
RRIRVRPPRLPRPRPRPHSCPRP | -0.0621
RRIRVRPPRLPRPRPRPHSQPRP | 0.288

Sequence | shrunken log2 fold change
RRIRVRPPRLPRPRPRPHTIPRP | -0.487
RRIRVRPPRLPRPRPRPHVDPRP | 0.0108
RRIRVRPPRLPRPRPRPHVIPRP | -0.0921
RRIRVRPPRLPRPRPRPHWAPRP | 0.142
RRIRVRPPRLPRPRPRPHWCPRP | -0.144
RRIRVRPPRLPRPRPRPHWQPRP | -0.024
RRIRVRPPRLPRPRPRPHYCPRP | -0.186
RRIRVRPPRLPRPRPRPIACPRP | 0.0889
RRIRVRPPRLPRPRPRPIAHPRP | -0.126
RRIRVRPPRLPRPRPRPICIPRP | -0.449
RRIRVRPPRLPRPRPRPICLPRP | 0.0369
RRIRVRPPRLPRPRPRPIEDPRP | -0.0208
RRIRVRPPRLPRPRPRPIFKPRP | -0.0901
RRIRVRPPRLPRPRPRPIFQPRP | -0.052
RRIRVRPPRLPRPRPRPIITPRP | -0.844
RRIRVRPPRLPRPRPRPILKPRP | -0.203
RRIRVRPPRLPRPRPRPIMQPRP | -0.149
RRIRVRPPRLPRPRPRPIPTPRP | 0.191
RRIRVRPPRLPRPRPRPIRPPRP | -0.0154
RRIRVRPPRLPRPRPRPISPPRP | 0.129
RRIRVRPPRLPRPRPRPISYPRP | -0.158
RRIRVRPPRLPRPRPRPITIPRP | -0.0236
RRIRVRPPRLPRPRPRPIVRPRP | -0.0635
RRIRVRPPRLPRPRPRPIVTPRP | -0.214
RRIRVRPPRLPRPRPRPIWQPRP | -0.114

Sequence | shrunken log2 fold change
RRIRVRPPRLPRPRPRPIYGPRP | -0.0564
RRIRVRPPRLPRPRPRPKAFPRP | 0.00341
RRIRVRPPRLPRPRPRPKCMPRP | 0.0847
RRIRVRPPRLPRPRPRPKDGPRP | 0.0237
RRIRVRPPRLPRPRPRPKDPPRP | -0.106
RRIRVRPPRLPRPRPRPKGFPRP | -0.00211
RRIRVRPPRLPRPRPRPKHQPRP | 0.0697
RRIRVRPPRLPRPRPRPKIWPRP | 0.0958
RRIRVRPPRLPRPRPRPKKFPRP | -0.0429
RRIRVRPPRLPRPRPRPKKYPRP | -0.411
RRIRVRPPRLPRPRPRPKLIPRP | -0.198
RRIRVRPPRLPRPRPRPKLVPRP | 0.194
RRIRVRPPRLPRPRPRPKMCPRP | -0.00991
RRIRVRPPRLPRPRPRPKNLPRP | 0.0256
RRIRVRPPRLPRPRPRPKNWPRP | 0.185
RRIRVRPPRLPRPRPRPKPKPRP | 0.312
RRIRVRPPRLPRPRPRPKPQPRP | 0.719
RRIRVRPPRLPRPRPRPKQAPRP | 0.243
RRIRVRPPRLPRPRPRPKQFPRP | 0.109
RRIRVRPPRLPRPRPRPKREPRP | 0.225
RRIRVRPPRLPRPRPRPKRRPRP | -0.0117
RRIRVRPPRLPRPRPRPKSFPRP | 0.217
RRIRVRPPRLPRPRPRPKSGPRP | 0.148
RRIRVRPPRLPRPRPRPKSIPRP | -0.172
RRIRVRPPRLPRPRPRPKTSPRP | -0.128
